experiment: yeast display, Sf9 membrane polyspecificity reagent, FACS + sequencing; frameworks hold sequencing errors
In short: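 Nanobodies came from a synthetic yeast display library in Saccharomyces cerevisiae BJ5465, induced with galactose for 36–48 hours and stained for 1 hour at 4 °C with 10% biotinylated, detergent-solubilized Sf9 membrane reagent. Cells were enriched on streptavidin microbeads and then FACS-sorted, with low and high (top ~1%) gates set on anti-HA fluorescence for expression and streptavidin fluorescence for reagent binding. Each polyreactivity label reflects the gate a clone came from. Genes were amplified by colony PCR, sequenced by MiSeq 2 × 250 and filtered by CDR length.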

Sequence | polyreactivity (PSR sort gate)
QVQLVESGGGLVQAGGSLRLSCAASGSIFKFYTMGWYIQAPGKERELVATITSGGRTNYADSVKGRFTISPDNAKNTVYLQMNTLKPEDTAVYYCAATWLRVKYRFKGYDYWGQGTQVTVSS | high polyreactivity
QVQLVESAGGLVQAGVSLRLSCAASGRTFYWYTMGWYRQAPGKERELVAAISSAGSTYYADSVKGRFTISRDNAKNTVYLQMNSLKPEDTAVYSCAAGSHSGRAYYYWGQGTQVTVSS | high polyreactivity
QVQLQEIGGGLVQAGGSLRLSCAASGYIIPYYSMRWYRQAPGKERGLVACIAAGTTTNFADCVKGRFTISRDNAKNTVYLQMNSLKPEDAAVYFCAALNAFKTGDWYWGQGTQVTVSS | low polyreactivity
QVQLVESGGGLVQAGGSLRLSCAASGRIFYSNTMGWYRQAPGKERELVARIDTGGGSTYADSVKGRFTISRDNAKNTVYLQMNSLKPEDTAVYYCAKTIAVNTWYYYWGQGTQVTVSS | low polyreactivity
QVQLVESGGGLVQAGGSLRISCAPSGIIFTDYAMGWYRQAPVKERELVAAISSGGGYTYYADSVKGRFTISRDNAKNTVYLQMISLKPEDTAVYYCAAEGYLISGAGDYLYDYYLGQGTQVTVSS | high polyreactivity
QVQLVESGGGLVPAGGSLRLSCAASGSTFNGYPMGWYRQAPGKEREFVATITFSDGSTYYADSVKGRFTISRDNAKNTVYLQMNSLKPEDTAVYYCNVDSRIGYDYWGQGTQVTVSS | low polyreactivity
QVQLVESGGGLVQAGGSLRLSCAASGSIFRGYTLGWYRQAPGKERELVAAISTRGGSTYYADSVKGRFTISRDNANNTVYLQMNSLKPEDTAVYYCNARSRGRASGYDYWGQVTQVTVSS | high polyreactivity
QVQLVESGGGLVQAGGSLRLSCAASGSIFYLYAMGWYRQAPGKERELVATITASGGSTNYADSVKGRFTISRDNAKNTVYLQMNSLKPEDTAVYYCAAEYYYLVYYYKEIVAYDYWGQGTQVTVSS | high polyreactivity
QVQLVESGGGLVQAGGSLRLSCAASGSIFTRNAMGWYRQAPGKERELVATIRKNGASTTYADSVKGRFTISRDNAKNTVYLQMNSLKPEDTAVYYCARDHHTKYNYWGQGTQVTVSS | low polyreactivity
QVQLVESVGGLVQAGGSLRLSCAASGNTFRRNVMGLYRQAPGKERELVAAINRGGSTYYADSVKGRFTISRDNAKNTVYLQMNSLKPEDTAVYYCNAVTRGYYHEMEYWGQGTQVTVSS | high polyreactivity
QVQLVESGGGLVQAGGSLRLSCAASGSIFIFYAMGWYRQAPGNERELVADITSDGASTYYADSVKGRFTISRDNAKNTVYLQMNSLKPEDTAVYYCAADYIDSSAYDYWGQGTQVTVSS | low polyreactivity
QVQLVESGGGLVQAGGSLRLSCAASGRMFFRYAMGCYRQAPGKEREFVATITWSGGRTHYADSVKGRFTISRDNAKNTVYLQMNSLKPEDTAVYYCAASYHRYAFDYWGQGTQVTVSS | high polyreactivity
QVHLVDSAGGLVQAGGSLRLSCAASGNIFDYNGMGWYRQAPGKERELVAGINWSGGSTYYADSVKGRFTISRDNAKNTVYLQMNSLTPEDTAVYYCAAECVYDWYPFWRAIYTYDYWGQGTQVTVSS | low polyreactivity
QVQLVESGGGLVQAGGSLRLSCAASGSIFYTNVRGWYRQAPGKAREFVAAITGGGGSTYYADSVKGRFTISRDNAKNTVYLQMNSLKPEDTAVYYCATKAKPRSGYNYWGQGTQVTVSS | low polyreactivity
QGQLVESGGGLGQAGGSLRLSCAASGSTVVLYAMGWYRQARGKERELVAAISGGATTTYADSVKGRFTISRDNAKNTVYLQMNSLKPEDTAVYYCAADFSTFVLSGAAMDYWGQGTQVTVSS | low polyreactivity
QVQLVESGGGLVQAGGSLRLSCAASGLIFVSYAMGWYRQAPGKERELVASITDSDSSTYYADSVKGRFTISRDNAKNTVYLQMNSLKPEDTAVYYCATGGRTEIWYPTLDYWGQGTQVTVSS | low polyreactivity
QVQLVESGGGLVHAGGSLRLSCAASGNIFKRNAMGWYRQAHGKERELVAAISGSGVRTYYADSVKGRFTISRDNAKNSVYLQMNSLKPEDTAVYYCNAEIRYSAWNWLSYEYWGQGTQVTVSS | high polyreactivity
QVQLVESGGGLVQAGGSLRLSCAASGSTFAKNAMGVYRQAPGKERELVAAISRGGNTYYADSVKGRFTISRDNAKITVYLLMNSLKPEDTAVYYCAARYLFRSLNMDYWGQVTQVTVSS | high polyreactivity
QVQLVESGGGLVQAGGSLRLSCAASGFIFANAIGWYRQAPGKEMELVAAITWSGDSTYYADSVKGRFTISRDNAKNTVYLQMNSLKPEDTAVYYCAAVVTNAYRYDYWGQGTQVTVSS | low polyreactivity
QVQLVESGGGLVQEGGSLRLSCAASGIIFYYNAMGWYRQAPGKERELVARITWRAGSTYYADSVKGRFTISRDNAKNTVYLQMNSLKPEDTAVYYCNADHDGLGYYYWGQGTQVTVSS | high polyreactivity
QVQLVESGGGLVQAGGSLRLSCAASGSNFVGYAMGWYRQAPGKERELVAAISWSGDSTYYADSVKGRFTISRDNAKITVYLQMNSLKPEDTAVYYCAVDYAEIGPRREVEYDYWGHGTQVTVSS | low polyreactivity
QVQLEESGGGLVQAGGSLRLSCAASGRIFGINALGWYRQAPGQERALVAAISRSGSRTYYADSVKGRFTISRDNAMNTVYLQMNSLKPEDTALYYCNARHQRFYAQPGDYWGQGTQVTVSS | high polyreactivity

Sequence | polyreactivity (PSR sort gate)
QVQLVESGGGLVQAGGSLRLSCAASGIIFTDNAMGWYRQAPGKERELVATISWSTDNTYYADSVKGRFTISRDNAKNTVYLQMNSLKPEDTAVYYCAAEEYYAYWYQYDYWGQGTQVTVSS | low polyreactivity
QVQLVESGGGLVQAGGSLLLSCAASGSIFQQYAMGGSRQAPGKERDLVAAISWGDGSTYYADSVKGRFTISRDNAKNTVYLQMNSLKPEDTAVYYCNAYASAPLWSLEDDYWGKGTQVTVSS | low polyreactivity
QVQLVESGGGLVQAGGRLRFSCAASGSTFVNNAMGWYRQAPGKERELVAAISRRGGRTYYADSEKGRFTISRDNAKNTVYLQMKSLKPEDTAVYYCAADESRYDYWGQGTQVTVSS | high polyreactivity
QLQLVESGGGLDQAGGSLRLSCAASGSIFPGYAMGWYRQAPGKESELVATITWSGGSTYYADSVKGRFTISRDNAKNTVYLQMNSLKPEDTAVYYCNADSNWYYQWNYYGLYDYWGQGTQVTVSS | low polyreactivity
QVHLVESGGGLVQAGGSLRLSCAASGSTFKPYTMGWYRQAPGKERELVAAITSRGTSTYYADSVKGRFKISRDNAKNTVYLQMNSLKPEDTEVYYCAARRPGTFSYGYWGQGTQVTVSS | high polyreactivity
QVQLVESGGGLVQAGGSLRLSCGASGRTFYSYAMGWYRQEHGKERELVATITNGDTTNYADSVKGRFTISRDNAKNTVYLQMNSLKQEDTAVYYCAKDISPGYDEYDYWGQGTQVTVSS | low polyreactivity
QVQLVESGGGLVQAGCSLRLSCAASGSIFRAYAMGWYRHAPGKERELVAGISGSGGSTYYADSVKGRFTISRDNAKNTVYLQMNSLKPQDTAVYYCAKALSTYQRTGCYDYWGQGTQVTVSS | high polyreactivity
QVQLVESGGGLVQAGGSLRLSCAASGIIFLSYAIGWYRQAPGKERELFAAISSGVSTYSADSVKGRFTISRDNAKNPVYFQMNSLKPEDTAVYFCAAYYLWPGYQFRPYDYWGQGTQVTVSS | low polyreactivity
QVQLVESGGGLVQAGGSLRLSCAASGFIFRSNAMGWYRQAPGKEREFVAAISSRGGSTTYADSVKGRFTISRDNAKNTVYLQMNSLKPEDTAVYYCARSLRRFVVAYDYWGQGTQVTVSS | high polyreactivity
QVHLVESGGGLVQAGGSLRLTCAASGRIFTSYVMGRSRQAPGQVRDLVAAITRSGGSTYYADSVKGRFTISRDNAKNTVYLQMNSLKPEDTAVYYCNALTRRQNGGEGGGYWGQGTHVTVSS | high polyreactivity
QVQLVESGGGLVQAGGSLRLSCAASGSIFYPNAMGWYRQAPGKERELVAVITGGATTYYADSVKGRFTISRDNAKNTVYLQMNSLKPEDTAVYYCAADSAENVYRGYYWGQGTQVTVSS | low polyreactivity
QVQLQESGGGLVQAGGSQRLSCAASGSISILQSMRWYRQAPGKERELVAGINWGATTYYADSVKGRLTSCRDYAKNTVYLEMNSLNPEDTAVYYCAVPTYYTYPLLYWGQGTQVTVSS | low polyreactivity
QVQLVESAGVLVQAGGSLRLSCAACGSIFDYYALGWYRQAPGKERELVDTISGGGGTTYYADSVKGRFTISRDNAKNTVYLIMNSLKPEDTAVYYCAADSLGYNYWGQGTQVTVSS | low polyreactivity
QVQLVESGGGLVQAGGSLRLSCAASGSTLRPYGMGWYRQAPGKERELVATIRSSSGRTYYADSVKGRFTISRDNAKNTVYLQMNSLKPEDTAVYYCARRYITNIKYDYWGQGTQVTVSS | high polyreactivity
QVQLVESGGGLVHAGGSLRLICAGSGFTFRGYAMGWYRQAPGKEMELVADITSGGSTYYADSVKGRFTISRDNAKNTVYLQMNSLKPEDTAVYYCAPRQRSRSRYDYWGQGTQVTVSS | high polyreactivity
QVQLVESGGGLVQAGGSLRLSCAASGSIFYVYAMGWYRQAPGKERELVAAISFSGDTTYYADSVKGRFTISRDNAKNTVYLQMNSLKQEDTAVYYCAAEYYYTWVYQYWEMDYWGQGTQVTVSS | low polyreactivity
QVQLVESGGGLVQAGGSLRLSCAASGRILPWYAMGWYRQAPGKERELVAGISSNGGSTYYADSVKGRFTISRDNAKNTVYLQMNSLKPEDSAVYYCAALFWYWRHYPSDYWGQGTQVTVSS | high polyreactivity
HEQLVESGGGLVQAGGSLRLICAASGRIFPRYAMGRYRQAPGKEMELVAAITKRDGSTYYADSVKGRFTISRDNAKNTVYLQMNSLKPEDSAVYYCATRRLYSKSWYYYWGQGTQVTVSS | high polyreactivity
QVQLVESGGGLVQAGGSLRLSCAASGITFTVYAMGWYRQAPGNEREVVAVINESGGSTYYADSVKGRFTISRDNAKNTVYLQMNSLKPEDTAVYYCNKTRVYVSSTYDYWGQGTQVTVSS | low polyreactivity
QVQLVESGGGLVQAGGSLRLSCAASGSIFSYYAMGWYRQAPGKERELVATISSGGSTNYADSVKGRFTISRDNAKNTVYLQMNSLKPEDTAVYYCAATIGHNGFDYWGQGTQVTVSS | low polyreactivity
QVQLVESGGGLVQAGGSLRLSCAASGSNFYHYAMGWYRQAPGKERELVAAITRSGGSTYYADSVKGRFTISRDNAKNTVYLQLNSLKPEDTAVYYCAKDPDSYNFLTSNWYDYWGQGTQVTVSS | low polyreactivity

— the nanobody polyreactivity screen of Harvey et al. (2022)
